Measurements reported in patent US20140173783.

Legend:
[1] = tested on: ZFN 25717 (E32 ZFN6 monomer) (artificial); experiment: cell_activity; conditions: pair 25716/25717, NGS indels in maize Hi-II callus
[2] = tested on: ZFN 25716 (E32 ZFN6 monomer) (artificial); experiment: cell_activity; conditions: pair 25716/25717, NGS indels in maize Hi-II callus

Sequence | activity (% of IPPK2 ZFN activity) [1] | activity (% of IPPK2 ZFN activity) [2]
CGGAAGCGGATGGCCCGCTTCTTTAGAA (double strand) [25717 target] | 380 | 
TGATCGCATCGGGCATCGGCGACTGATG (double strand) [25716 target] |  | 380
